Data published in a protein production outcome set (Wang et al. 2014).

Experiment: label from the status in PepcDB records

| Sequence | protein production |
| --- | --- |
| MRHLITSLQNHNGQLKGEVQRYKRKYKDTSTDNLKLRQELADALATLEGNKLQAATGAAGEEIKQENSTGVKEENSNNVSASGQTNQTNSGNDTNVAIKEENHISAEDEADDEASGKDVKDGIKQEKLSSGDAAAAEKKDSPGPGNSTSSATNSVPVKNEKDSKDGVKGKDVKAVESETV | failed |
| MRHNIKFKSKGTLKIRNTAQISLWKKCSDSMIADQTYLFINRVQDRRFDEESLRILELSLVAMNVKSFLEVRSRLRDFMRSESVVIFGELTGESMVAKLSVLEFFARAFALLGDMESCLAMRYEALNLRQLKSPSCLWLGVSHSEWTKFAVQSMENGFPSIAGKASENALLSLKKDSLIEPKSEDNSDILDAAEKVRRLRDSAASLTSSHSGIFIYIVSSLKFAVCNRLLTTF | failed |
| MRHWLILFLLALPCLAGAVSFNEQVERLPLGQSIDVFEDVRGSADINDITSRAIDSSFRRHDKDVLNAGYSRSVFWLRLDLDYRPVASSDPRTWLLELAYPPLDKLDLYLPDGQGGYRLAQRTGDTLPFASRPIRQNNYLFELGLEPNKPQRVYLRLESQGSIQAPLTLWSPKAYLEEQPERIYVLGIIYGVLLVMLIYNLFIFLSVRDTSYLYYILYIASFGLYQVSVNGAGIEYFWPDSPWWANAATPFLIGSAALFGCQFARSFLHTRDHSVWVDRGLLALMAVGALVMLMALTMSYAVALRLATYLALAFTGLIFAAGILAWLRGMRVARYFIIAWTAFLLGGIVNTLMVLGYLPNMFLTMYASQIGSALEVGLLSLALADRINAMKEERARILQESSRKLEALNQELANSNRLKDEFLATVTHELRTPMSGVIGSLELMQTVPMDVELAEYQRTAAGSARDMMRMVNDILALIELQAGKLYPRREPFSLRGLFDSLRAQYAPRVEEKGLRFALQLDDSLPDTLEGDAGKLAQALGYLVDNAIKFTARGSVTLRVAAGRTHDGVALRVEVIDTGIGFDMAAGSDLYQRFVQADSSLTRGYGGLGIGLALCRKLVELLGGELTHESRPGQGSRFLLRLQLTQPAQGLAPPPRRAGGQAVRRPEECTVLVVEDNAINQLVTRGMLLKLGYRVRTADNGSEALELLARERPDGVLLDCQMPVMDGFATCRAIRALPGCAELPVLALTAHSHSGDRERCLAAGMSDYMAKPVKFEELQTLLHDWLLCQPIVTKSA | failed |
| MRIAGIEPESIVDGPGIRFTVFTQGCPLQCPGCHNPATWDPCGGQEVDVEEVIAAMNSSVLASGLTLSGGEASRQPRACARLARAAHEMGWDVWSWSGYTVEALMRQARRDAELADMLGQIDVLVDGPFQLVHRTLTLPWRGSSNQRVIDMPATLRGGRAVEWADRAGNLR | failed |
| MRIDLSVPKVGAELELNKVLGKGSSGSVSLIKYKSRLDGQTLYAAVKTSNIIHADSLLKEFQILSEFKGCSRIVQCYGTKVQETINEEGDVEFTIPMEYASGGSLRHFMSRFKDMKLPDALIRRFTRMILEGLAVIHGHGYVHCDLKPENILVFPSFELKISDFGLSKREGDSKWWLPSHPFAGTPVYMSPESISNGETRRGLDLWSLGCVVLEMYTGKRPWWDKNYDLGDLKKGSMPLISKDIPCDAKLFVMTCFASETNKRKNAFTLLRHCFLRGDVNKIIEPLVKSKNSNDIALELENIEHRLSQLRCISGG | failed |
| MRIGHGFDVHAFGGEGPIIIGGVRIPYEKGLLAHSDGDVALHALTDALLGAAALGDIGKLFPDTDPAFKGADSRELLREAWRRIQAKGYTLGNVDVTIIAQAPKMLPHIPQMRVFIAEDLGCHMDDVNVKATTTEKLGFTGRGEGIACEAVALLIKATK | not failed |
| MRIGIISVGPGNIMNLYRGVKRASENFEDVSIELVESPRNDLYDLLFIPGVGHFGEGMRRLRENDLIDFVRKHVEDERYVVGVCLGMQLLFEESEEAPGVKGLSLIEGNVVKLRSRRLPHMGWNEVIFKDTFPNGYYYFVHTYRAVCEEEHVLGTTEYDGEIFPSAVRKGRILGFQFHPEKSSKIGRKLLEKVIECSLSRR | not failed |
| MRIGQYQLRNRLIAAPMAGITDRPFRTLCYEMGAGLTVSEMMSSNPQVWESDKSRLRMVHIDEPGIRTVQIAGSDPKEMADAARINVESGAQIIDINMGCPAKKVNRKLAGSALLQYPDVVKSILTEVVNAVDVPVTLKIRTGWAPEHRNCEEIAQLAEDCGIQALTIHGRTRACLFNGEAEYDSIRAVKQKVSIPVIANGDITDPLKARAVLDYTGADALMIGRAAQGRPWIFREIQHYLDTGELLPPLPLAEVKRLLCAHVRELHDFYGPAKGYRIARKHVSWYLQEHAPNDQFRRTFNAIEDASEQLEALEAYFENFA | failed |
| MRIGVYVCHCGLNIAGVIDVSALEEMAGELEDVVLAREVQFLCSDSGQEGIIKDIKDNKIDRVVIAACSPRLHEKTFRHVMEKADLNPYLMEMVNIREQCSWVHADDPQMATQKAFDLIRMGVAKARFLRELSATSSKASRNVLIIGGGVAGIEAALNLAEAGFPVTMVERESTIGGKMALMNEVFPTNDCSICVLAPKMTEVQNHPNITLYTYSEVTDISGSVGKFHVRVTRKPRFVLEDKCKGCVDLCSEVCPVEIENPMNYGIGKSRAIYMPIPQSVPQVVLIDPDHCVGCGLCQLACPAEAVDYEQKPEEIEFEAGAVIVSTGYQLFDASRKKEYGFGKYPDVITNMQLERMLNSAGPTGGRVLVPSTGQPPESVAFIQCVGSRDKTVGNEHCSRVCCMAALKNSQMVKERYPGTDITIHYIDIRAAGEMYEEYYARTQGMGVDFIRGKVAEVYAGEDGRPVVRYENTLESRVEEEAHDLVVLSTGYEPSKAAEGIGRMLNLARRPDRFFASAHPKMRPVDAPVSGVFLAGCASGPKEIQVSIAQGSACASKVMQLLGTGELEADPMGAHVDPDKCIGCRTCVEVCKFGKISIVDKKAVVDEVSCYGCGDCSAACPVGAIQMRNFENEQILAQVRAATAHKSQCPFVVAFLCNWCSYACADLTGMSRIHYPTNIRVIRTMCSARINPEFVLEALKGGADGVLVAGCRMDECHYIHGNFDAKKRMDVLKEIIKEIGLDPKRLRTLWISAAEGERFSNTITEFVKELEEIGPIGSELKREYTATGLEEVAK | failed |
| MRIIKNIILISLLFAIILVSLFFGEKWVRTNVKNQAIVYNSQLNPTVMISGSSANNHRFDNLVAILNRQSTTHSLLRVQVNEDNSISYSGRIRPNDSQPYIVIGFQNNSDGYANIKRQAKWLEIAMKFLQKRYHFNHFNAFGHSNGGLDWTIYLEKYFNQKSSTIGTLMTVGSPFNFSEKSESNRTQMLTDLIKNRSKLPRDMTVYSIAGTETYNDDGIVPIESVLSGKYVFQKNVHSYTQITVSGNDSEHSDLPTNPQIVQLIQRDILDGRGQKQSSNPVFNNH | failed |
| MRILLTTLNAKYIHVNLALRYLRACCRDLPHTFILDEFTINDHPEHIAAAIYRHRPDLVAFSCYIWNIEPTLAVAAILKKVRPELTILCGGPEVSFDTAAFLAQNPQIDLVITGEGEIPFRALLEQLAGQQRPPAGNREEPLTASMYRPAGGRPAPGPVPDPAAIPGLAWRRGAETIVNPPAPPLRDLDTIPFPYQEDLDAAGNELSQRTVYYETSRGCPFACGFCLSSTTEGLRYFSLERVRDDLERLLKAGVREIKFVDRTFNAHKKRALAIWEFLLSRRPRARCYFEIAGDRLDEEMLAHLNRVPPDLFQFEIGVQTIDAGVNARCNRRQDWARLAANTRRLREMGSIRLHLDLIAGLPGETYAGVGESFDAVVALKPHEIQLGFLKLLKGTTLRARADEFGYLFLDRPPYQVLASSAITYEEMLRLHAIEGLLKYYGNSHLADHAFAYLAATAFDGSYFAIYEALAAWWEARGLLRRGHSQRDLFNHLASFAIHLARGIATRVTVPPLPGYHDSILEINSHGDTPASGAEHSGCARNLTPAQLDRFYQLLKFDCLCRDRSRNFPGWMPPSPLTEEERSNWMARITTPRSMEKYMPGLVKESPANLRRHGFIELFPCHPERPEEDNPTIVFFYYGPPGSETRVYYLQAPPLVV | failed |
| MRILTLGLDGSGEFAFQSHAHTDHFANGRLIFATRPTIFLSHLRNSRYYIPVDFGKKFYIGDFKAKLYPSGHILGSSGIKIWLDEGTLYYTGDVKVKKLRTVERAKLPKADFLIIESTFGLPRFTFPDPRESEKVIIGIVEDLIDRGKVPTFMANPYGKAQEIIKILNVHGYSVSVDREIAKVSKFYMKFGVRLKFEKEGEVKVSSSKGISVSGFGRIKLSNHADFWELLEIVERVNPEKVFTVYGHAEAFAKILNGLGYEAKSIRRNQKLEVWLEHHHHHH | failed |
